Data on 19 molecules can be found in US20070099199A1 (published 2007).

Values joined by “and” are separate entries in the source; they are usually repeats but may differ in a detail not shown here. Equal entries are not always repeated.

B1: TIP-TIP-IgG fusion protein (two copies of the TIP-1 PDZ domain fused to the hIgG constant region) (Fc fusion)
chain: QRVEIHKLRQGENLILGFSIGGGIDQDPSQNPFSEDKTDKGIYVTRVSEGGPAEIAGLQIGDKIMQVNGWDMTMVTHDQARKRLTKRSEEVVRLLVTRQSLQKQRVEIHKLRQGENLILGFSIGGGIDQDPSQNPFSEDKTDKGIYVTRVSEGGPAEIAGLQIGDKIMQVNGWDMTMVTHDQARKRLTKRSEEVVRLLVTRQSLQK
notes: domain: PDZ domain; not shown: hIgG constant region of the CD5gamma or PEAK10 vector

The first test has as its target T1, GST-HPV11E6 fusion protein (full length E6 of HPV11) (human papillomavirus 11, UniProt P04019 1-150).
T1 construct: domain: full length protein
The experiment in a line: modified ELISA: GST-E6 coated at 5 ug/ml, TIP-TIP-IgG supernatant, anti-hIgG-HRP. (An ELISA detects its analyte on a solid surface through an enzyme-linked reagent.)
For B1, the binding result is reported as “no binding”.

The target of another test is HPV16 E6 C-terminal PDZ ligand (PL) peptide, biotinylated (human papillomavirus type 16) (UniProt P03126). The experiment in a line: G assay ELISA; immobilised GST-PDZ, biotin-peptide 10 uM.
Take GST-MAGI1 PDZ domain 5: the Ave OD is 0.432 A450 nm and the OD S/N (ratio vs GST only) was 1.77.

Regarding GST-AF6 PDZ domain 1, the Ave OD amounted to 0.444 A450 nm and the OD S/N (ratio vs GST only) was determined as 1.8. With “GST-Magi2 PDZ domain 3 (from UniProt Q86UL8 774-865)”, the Ave OD is 0.416 A450 nm and 0.359 A450 nm; the OD S/N (ratio vs GST only) is 1.98 and 1.65. Take “GST-EZRIN Binding Protein 50 PDZ domain 1, clone #341.1”: the Ave OD stood at 0.43 A450 nm and the OD S/N (ratio vs GST only) came out at 1.65. The corresponding values for GST-NSP PDZ domain 1, clone #42.5 are 0.416 A450 nm and 1.95. In the case of GST-Densin 180 PDZ domain 1, the Ave OD is 0.42 A450 nm and 0.35 A450 nm; the OD S/N (ratio vs GST only) was 1.96 and 1.82. As for GST-PAR3 PDZ domain 3, clone #278.1, the Ave OD was 0.352 A450 nm and the OD S/N (ratio vs GST only) was 1.8.

As to GST-DLG-6 PDZ domain 1, clone #333.1, the Ave OD stood at 0.349 A450 nm and the OD S/N (ratio vs GST only) stood at 2.04.

A further test has the same target. Description: Matrix/G assay ELISA; E6 peptide titrated on GST-PDZ.
Consider “GST-Magi3 PDZ domain 1 (from UniProt Q5TCQ9 18-106)”, for which the EC50 was found to be 310 nM.

On to GST-SAST2 PDZ domain 1, for which the EC50 came out at 1200 nM.

The target in the next test is HPV E6 #16 PDZ ligand peptide (C-terminal peptide of the E6 protein of HPV 16) (HPV 16) (UniProt P03126). Description: G assay ELISA, immobilised GST-PDZ, biotin peptide 10 uM.
For the molecule GST-NeDLG PDZ domain 1, the Ave OD is 0.516 A450 nm and the OD S/N (ratio to GST-only well) is 1.98. Consider GST-PDZK1 PDZ domain 3, for which the Ave OD stood at 0.5 A450 nm and the OD S/N (ratio to GST-only well) was 1.92. Take GST-MAGI 1 PDZ domain 5: the Ave OD was found to be 0.541 A450 nm and the OD S/N (ratio to GST-only well) was 3.12. With GST-KIAA1526 #126.1 PDZ domain 2, the Ave OD was determined as 0.463 A450 nm and the OD S/N (ratio to GST-only well) came to 1.87. On the same counts, the results for GST-PDZ-73 PDZ domain 2 are 0.561 A450 nm and 1.95. The corresponding values for GST-INADL PDZ domain 3 are 0.485 A450 nm and 1.86. Regarding GST-TAX IP 2 PDZ domain 1, the Ave OD was 0.508 A450 nm and 0.478 A450 nm; the OD S/N (ratio to GST-only well) is 2.37 and 2.48. Consider GST-NSP #268.2 PDZ domain 1, for which the Ave OD is 0.724 A450 nm and the OD S/N (ratio to GST-only well) was determined as 2.58.

The next test addresses HPV16 E6 C-terminal PDZ ligand (PL) peptide, biotinylated (human papillomavirus type 16) (UniProt P03126). Description: G assay ELISA; E6 PL peptide titrated on constant GST-PDZ.
In turn, “GST-Magi3 PDZ domain 1 (from UniProt Q5TCQ9 18-106)” gave an EC50 of 310 nM. On the same count and under the same terms, the figure for GST-SAST2 PDZ domain 1 is 1200 nM.

By EC50 is commonly meant the concentration giving half of the maximal effect.
